Source: patent US20140303084A1 (Biogen, published 2014)
Bridge positions count the residues as written; N and C are the ends. Square brackets hold non-standard residues; d marks the D form. Primed or numbered codes have the meaning given here. Side chains are listed from the residue outwards. Ends that are not written are not given here. * marks the point of attachment. :N‑O‑CH2‑CO‑PEG27 = oxime linkage (=N-O-CH2-CO-) to a PEG27 spacer; Biotin = O=C1N[C@H]2[C@H](CS[C@H]2CCCCC(=O)*)N1; PEG2(3) = PEG2 spacer carrying biotin on Lys; 1Nal = N[C@@H](Cc1cccc2ccccc12)C(=O)O; NMeR = CN[C@@H](CCCNC(=N)N)C(=O)O; Palmitoyl = CCCCCCCCCCCCCCCC(=O)*; NMeL = CN[C@@H](CC(C)C)C(=O)O; Tle = CC(C)(C)[C@H](N)C(=O)O; PEG16″ = not defined here; Nle = CCCC[C@H](N)C(=O)O; PEG2′ = PEG2 spacer unit; PEG2″ = not defined here; PEG16′ = PEG-16 spacer; Aib = CC(C)(N)C(=O)O

Each binder was assayed against human Factor IXa (human, UniProt P00740 47-191; P00740 227-461) (assay: cell-based or functional assay).

Binder	EC50 [µM], FXa generation assay [µM]	EC50 [µM], FXa generation assay with hFIXa [µM]
RAPGKLQCLASYCWLFWTGIA	< 0.5	–
[PEG16″]K([PEG2″-Biotin])[PEG16″][dR]RAPGKLTCLASYCWLFWTGIA (cysteine pairing not given here) [PEG16-Lys(PEG2-Biotin)-PEG16-rRAPGKLTCLASYCWLFWTGIA]	> 1	–
RKAPGKLQCLASYCWLFWTGIA	> 1	–
KLLKLLLKLLLKLLK[dK][NMeL]TCLASYCWLF (not fully specified; printed as KLLKLLLKLLLKLLK-k-MeLeu-TCLASYCWLF; cysteine pairing not given here) [KLLKLLLKLLLKLLK-k-MeLeu-TCLASYCWLF]	< 0.5	–
RRAPGKLQCLASYCWLFW	> 1	–
RAAPGKLQCLASYCWLFWTGIA	< 0.5	–
KRAPGKLQCLASYCWLFWTGIA	< 0.5	–
RRAPGKLQCLASYCWLF	> 5	–
[NMeR]RAPGKLTCLASYCWLFWTGIA (cysteine pairing not given here) [MeArg-RAPGKLTCLASYCWLFWTGIA]	> 1	–
RRAPGKLQCLASYCWLFWTGFA	< 0.5	–
RRAPGKLQCLASYCWLFWTG	> 1	–
RRAPGKLQCLASYCWLFWT	> 1	–
RRAKGKLQCLASYCWLFWTGIA	> 1	–
PGKLQCLASYCWLFWTGIA	< 0.5	–
{Palmitoyl-(PEG)27}-KLTCLASYCWLF (cysteine pairing not given here) [Palmitoyl-(PEG)27-KLTCLASYCWLF]	> 1	–
RRAPGKLQCLASYCWLFWT[Aib]IA (not fully specified; printed as RRAPGKLQCLASYCWLFWT-Aib-IA; cysteine pairing not given here) [RRAPGKLQCLASYCWLFWT-Aib-IA]	> 1	–
RRAPGKLQCLASYCWLFWTGIK	> 1	–
RRAPGKLQCLASYCWLFKTGIA	> 10	–
RRAPGKLQCLASYCWLFWTG[Nle]A (not fully specified; printed as RRAPGKLQCLASYCWLFWTG-Nle-A; cysteine pairing not given here) [RRAPGKLQCLASYCWLFWTG-Nle-A]	< 0.5	–
RRAPGKLQCLASYCWLFWTG[Tle]A (not fully specified; printed as RRAPGKLQCLASYCWLFWTG-Tle-A; cysteine pairing not given here) [RRAPGKLQCLASYCWLFWTG-Tle-A]	< 0.5	–
ARAPGKLQCLASYCWLFWTGIA	< 0.5	–
RRAPGKLQCLASYCWLFWTGLA	< 0.5	–
H-KLTCLASYCWLFG[:N‑O‑CH2‑CO‑PEG27]CNPRGDY(OEt)RC (numbers in words are those of the source; cysteine pairing not given here; also: oxime link =N-O-CH2-CO-PEG27 between G13 and C14, Y20 as Y-OEt) [H3N-KLTCLASYCWLFG═N-O-CH2-CO-PEG27-CNPRGD-(Y-OEt)-RC]	> 50	–
RRAPGKLQCLASYCWLFWKGIA	> 5	–
GKLQCLASYCWLFWTGIA	< 0.5	–
{Palmitoyl-(PEG)27-(PEG)27}-KLTCLASYCWLF (disulfide 4-9 (inferred); not fully specified (C-terminus); printed as Palmitoyl-(PEG)27(PEG)27-KLTCLASYCWLF) [Palmitoyl-(PEG)27(PEG)27-KLTCLASYCWLF]	> 20	–
APGKLQCLASYCWLFWTGIA	< 0.5	–
RRAPGKLQCLASYCWLFWTGKA	> 5	–
RRAPGKLQCLASYCWLFWTG[1Nal]A (not fully specified; printed as RRAPGKLQCLASYCWLFWTG-(1-Nal)-A; cysteine pairing not given here) [RRAPGKLQCLASYCWLFWTG-(1-Nal)-A]	< 0.5	–

Now from value to binder:

EC50 [µM], FXa generation assay [µM]	EC50 [µM], FXa generation assay with hFIXa [µM]	Binder
< 0.5	–	[dR]RAPGKLTCLASYCWLFSTGIA (not fully specified (C-terminus); printed as rRAPGKLTCLASYCWLFSTGIA; cysteine pairing not given here) [rRAPGKLTCLASYCWLFSTGIA]
> 10	–	[dR]RAAGKLTCLASYCWLAATGIA (not fully specified (C-terminus); printed as rRAAGKLTCLASYCWLAATGIA; cysteine pairing not given here) [rRAAGKLTCLASYCWLAATGIA]
< 0.5	–	[dR]RAPGKLTCLASYCWLFWTGIA[PEG16″]K([PEG2″-Biotin])[PEG16″] (cysteine pairing not given here) [rRAPGKLTCLASYCWLFWTGIA-PEG16-Lys(PEG2-Biotin)-PEG16]
> 5	–	[dR]RAPGKLTCLASYCWLSWTGIA (not fully specified; printed as rRAPGKLTCLASYCWLSWTGIA; cysteine pairing not given here) [rRAPGKLTCLASYCWLSWTGIA]
< 0.5	–	[dR]RAAGKLTCLASYCWLFATGIA (not fully specified (C-terminus); printed as rRAAGKLTCLASYCWLFATGIA; cysteine pairing not given here) [rRAAGKLTCLASYCWLFATGIA]
–	< 0.5	RRAPK([PEG2(3)-Biotin])KLTCLASYCWLFWTGIA-NH2 (cysteine pairing not given here) [compound 20]
–	< 0.5	R[dR]APGKLTCLASYCWLFWTGIA-NH2 (cysteine pairing not given here) [compound 6]
> 10	–	[dR]RAAGKATCLASACWLAATGIA (not fully specified (C-terminus); printed as rRAAGKATCLASACW LAATGIA; cysteine pairing not given here) [rRAAGKATCLASACW LAATGIA]
> 1	–	[dR]RAAGKLTCLASACWLFATGIA (not fully specified (C-terminus); printed as rRAAGKLTCLASACWLFATGIA; cysteine pairing not given here) [rRAAGKLTCLASACWLFATGIA]
> 1	–	RRAPGKLQCLASYCWLFWTKIA
< 0.5	–	[dR]RAPGKSTCLASYCWLFWTGIA (not fully specified (C-terminus); printed as rRAPGKSTCLASYCWLFWTGIA; cysteine pairing not given here) [rRAPGKSTCLASYCWLFWTGIA]
> 1	–	[dR]RAPGKLTCLASYCWLFWTGIA[PEG16′]K([PEG2(3)-Biotin])[PEG16′]K(Palmitoyl) (cysteine pairing not given here) [rRAPGKLTCLASYCWLFWTGIA-PEG16-Lys(PEG2-Biotin)-PEG16-Lys(palmitoyl)]
< 0.5	–	[dR]RASGKLTCLASYCWLFWTGIA (not fully specified (C-terminus); printed as rRASGKLTCLASYCWLFWTGIA; cysteine pairing not given here) [rRASGKLTCLASYCWLFWTGIA]
–	< 0.5	RRAPGKLTCLAK([PEG2′-Biotin])YCWLFWTGIA-NH2 (cysteine pairing not given here) [compound 18]
> 1	–	RRAPKKLQCLASYCWLFWTGIA
> 1	–	RRKPGKLQCLASYCWLFWTGIA
